From article PMC5324060, “Evolutionary, computational, and biochemical studies of the salicylaldehyde dehydrogenases in the naphthalene degradation pathway” (Scientific Reports, 2017)

Assays:
[1] = substrate: O=Cc1ccccc1O; test: Kinetics assay of wild-type recombinant SALDan (NADH appearance at 340 nm); type: biochemical, Alteromonas naphthalenivorans; settings: other: wild-type; aldehyde varied at NAD^+ 100 μM, enzyme 0.1 μM; for NAD^+: SAL fixed 50 μM, NAD^+ 0–500 μM; 45.0 °C
[2] = substrate: O=Cc1ccc2ccccc2c1; test: as above; type: biochemical, Alteromonas naphthalenivorans; settings: other: wild-type; aldehyde varied at NAD^+ 100 μM, enzyme 0.1 μM; for NAD^+: SAL fixed 50 μM, NAD^+ 0–500 μM; 45.0 °C
[3] = substrate: O=CCCCC=O; test: as above; type: biochemical, Alteromonas naphthalenivorans; settings: other: wild-type; aldehyde varied at NAD^+ 100 μM, enzyme 0.1 μM; for NAD^+: SAL fixed 50 μM, NAD^+ 0–500 μM; 45.0 °C
[4] = substrate: O=Cc1ccccc1Cl; test: as above; type: biochemical, Alteromonas naphthalenivorans; settings: other: wild-type; aldehyde varied at NAD^+ 100 μM, enzyme 0.1 μM; for NAD^+: SAL fixed 50 μM, NAD^+ 0–500 μM; 45.0 °C
[5] = substrate: NC(=O)c1ccc[n+]([C@@H]2O[C@H](COP(=O)([O-])OP(=O)(O)OC[C@H]3O[C@@H](n4cnc5c(N)ncnc54)[C@H](O)[C@@H]3O)[C@@H](O)[C@H]2O)c1; test: as above; type: biochemical, Alteromonas naphthalenivorans; settings: other: wild-type; aldehyde varied at NAD^+ 100 μM, enzyme 0.1 μM; for NAD^+: SAL fixed 50 μM, NAD^+ 0–500 μM; 45.0 °C
[6] = molecular target: the molecule itself; test: cross-linking; purified SALDan (0.5 mg/ml) with 0.1% aldehyde for various periods at 25 °C, quenched with 1 M Tris-HCl, SDS-PAGE and Coomassie staining
[7] = molecular target: the molecule itself; test: SEC; purified SALDan on a Superdex 200 10/300 GL column, against standards ferritin, catalase, alcohol dehydrogenase, albumin, ovalbumin; one peak at approximately 160 kDa (monomer approximately 53 kDa)
[8] = substrate: O=Cc1cccc(Cl)c1; test: purified protein, by the assay type; settings: other: wild-type; aldehyde varied at NAD^+ 100 μM, enzyme 0.1 μM; for NAD^+: SAL fixed 50 μM, NAD^+ 0–500 μM; 45.0 °C
[9] = substrate: O=Cc1ccc(Cl)cc1; test: purified protein, by the assay type; settings: other: wild-type; aldehyde varied at NAD^+ 100 μM, enzyme 0.1 μM; for NAD^+: SAL fixed 50 μM, NAD^+ 0–500 μM; 45.0 °C
[10] = substrate: O=Cc1ccc([N+](=O)[O-])cc1; test: purified protein, by the assay type; settings: other: wild-type; aldehyde varied at NAD^+ 100 μM, enzyme 0.1 μM; for NAD^+: SAL fixed 50 μM, NAD^+ 0–500 μM; 45.0 °C
[11] = substrate: O=Cc1ccccc1O; test: Kinetics assay of SALDan mutant E175A; type: biochemical, Alteromonas naphthalenivorans; settings: other: E175A mutant; SAL varied at NAD^+ 100 μM; NAD^+ varied at SAL 50 μM
Source text: (§1) The primers used for the single amino acid mutant were as follows: N149A, forward primer, 5′-ATAGCACCGTGGGCCGGGCCTATTGTATTA-3′; reverse primer, 5′-TAATACAATAGGCCCGGCCCACGGTGCTAT-3′; V153A, forward primer, 5′-AATGGGCCTATTGTATTAGCGGCTCGG-3′; reverse primer, 5′-CCGAGCCGCTAATACAATAGGCCCATT-3′; E175A, forward primer, 5′-[…]-3′, reverse primer, 5′-GTTGGGACAGTCTTCCAGCCC-3′; E175A, forward primer, 5′-ATGCTCCACCAAATTGGGCAC-3′; reverse primer, 5′-TTTAGGACTTACTTCTGAAGCTTTAAA-3′. The PCR was performed using Pfu polymerase, and the cycling parameters were: 95 °C for 5 min (one cycle), 95 °C for 30 s, and 68 °C for 12 min (12 cycles). After amplification, the PCR mixture was digested with DpnI and then transformed into E. coli BL21(DE3) by electroporation. The mutants were confirmed by DNA sequencing.
(§2) The activity of the purified proteins was determined using SAL as a substrate. A reaction volume of 500 μL was prepared in a microfuge tube containing purified SALDan (0.1 μM), SAL (100 μM), and NAD^+ (100 μM) dissolved in 50 mM HEPES (pH 7.5) containing 150 mM NaCl. The SALDan activity was monitored as the rate of appearance of NADH at 340 nm spectrophotometrically. The specific activity of the enzyme (units.mg^−1.min^−1) was expressed as the amount of enzyme required to produce 1 μM of NADH under the assay conditions. The influence of pH on the activity was determined using the protocol described above, with the exception of replacing the […] buffer with 50 mM sodium acetate (pH 3.0–5.0), 50 mM 2-(N-morpholino)ethanesulfonic acid (pH 5.0–7.5), 50 mM HEPES (pH 8.0–8.5), 50 mM glycine (pH 9.0–10.0), or 50 mM sodium phosphate (pH 11.0)[52]. All assays were performed at the optimal temperature. To determine the influence of temperature on the enzymatic activity, the reactions were performed at 15, 20, 25, 30, 35, 40, and 45 °C, respectively.
(§3) For kinetic studies of aldehydes, the initial velocities of the enzymatic reactions were examined by varying the concentrations of various aromatic as well as aliphatic aldehydes in the presence of NAD^+ (100 μM) and the enzyme (0.1 μM) under optimal conditions. For substrates that absorb at 340 nm, thus interfering with the calculation of the initial rate, their molar coefficients (ε) were calculated as described previously[64] and are presented in Table S1. The apparent kinetic parameters were calculated using the equation: […]
(§4) The apparent kinetic parameters for NAD^+ were determined at a fixed concentration of SAL (50 μM) and a varying concentration of NAD^+ (0–500 μM). The apparent Km and Vmax values were calculated by using the equation: […]
(§5) All the activity data were determined by three separate experiments with at least three technical replicates.

[12] = substrate: NC(=O)c1ccc[n+]([C@@H]2O[C@H](COP(=O)([O-])OP(=O)(O)OC[C@H]3O[C@@H](n4cnc5c(N)ncnc54)[C@H](O)[C@@H]3O)[C@@H](O)[C@H]2O)c1; test: Kinetics assay of SALDan mutant E175A; type: biochemical, Alteromonas naphthalenivorans; settings: other: E175A mutant; SAL varied at NAD^+ 100 μM; NAD^+ varied at SAL 50 μM
Source text: as §1, §2, §3, §4, §5

B1: Salicylaldehyde dehydrogenase from Alteromonas naphthalenivorans (SALDan) (enzyme, UniProt F5Z5S7 1-483, looked up)
chain: MKTQLIINNKFVDSESTNTFERYNQTLGEVVTSAAAASVADANNAAEVAQEAFKSWSKTGPTERRNVLLKAADILESKTAEFIDVMAKEVGSSGLWAGFNVMLAANVFREAASLATQIQGETIPTDKPGTLSMTIREPVGVILSIAPWNGPIVLAARAIAYPIVCGNSVVFKASEVSPKTHSLVVEAVIEAGLPAGVLNLLSNKPEDGESIVNALIEHKAVRRINFTGSTHVGRIIAQKAGYHLKRCLLELGGKSPQVILDDANLKEAAKAATFGSFLYQGQICMTTGRIIVDESVADEFGEIFAKLASKLPVGNPCDNNDCIVGPVVTQSSAERLNGYIDDALSKGAKLITGGKANGTVMKPTILDHVTSDMEIYHEESFGPLICMVRVKNADEALHTANDTPYGLSAAVFGKDVNRALQMAKDINAGHCHVNGTTVQNDAQAPYGGTKDSGWGRFDGRAVIDEFTELKWITIEPIVQDYPF
notes: Salicylaldehyde dehydrogenase (EC 1.2.1.65) of Alteromonas naphthalenivorans, UniProt F5Z5S7; amplified from genomic DNA with primers from the ATG start codon to the stop codon; about 53 kDa on SDS-PAGE; Cloned between BamHI and HindIII of pET28a; also called SAL dehydrogenase; WT; source: E. coli BL21 (DE3), pET28a, purified (Ni-NTA column)
Q: How did the Km [1] turn out when B1 was run?
A: 3.8 ± 0.5 µM

Q: And the Vmax [1]?
A: 49.5 µmol/min/mg

Q: What about the kcat [1] of the same protein?
A: 124 ± 13.6 s⁻¹

Q: And the kcat/Km [1]?
A: 3.25e+07 ± 4.2e+06 M⁻¹ s⁻¹

Q: What about the Km [2] of the same protein?
A: 3.4 ± 0.5 µM

Q: And the Vmax [2]?
A: 61.4 µmol/min/mg

Q: And the kcat [2]?
A: 153 ± 14.4 s⁻¹

Q: And the kcat/Km [2]?
A: 4.5e+07 ± 4.4e+06 M⁻¹ s⁻¹

Q: And the Km [3]?
A: 560 ± 46.0 µM

Q: What about the Vmax [3] of the same protein?
A: 11.6 µmol/min/mg

Q: What about the kcat [3] of the same protein?
A: 29.6 ± 3.7 s⁻¹

Q: What about the kcat/Km [3] of the same protein?
A: 53000 M⁻¹ s⁻¹

Q: And the Km [4]?
A: 3.2 ± 0.3 µM

Q: What about the Vmax [4] of the same protein?
A: 45.6 µmol/min/mg

Q: And the kcat [4]?
A: 114 ± 17.2 s⁻¹

Q: And the kcat/Km [4]?
A: 3.57e+07 ± 4.5e+06 M⁻¹ s⁻¹

Q: And the Km [5]?
A: 39.5 ± 3.2 µM

Q: What about the Vmax [5] of the same protein?
A: 94.1 µmol/min/mg

Q: What about the kcat [5] of the same protein?
A: 234 ± 24.2 s⁻¹

Q: What about the kcat/Km [5] of the same protein?
A: 5.9e+06 ± 500000 M⁻¹ s⁻¹

Q: And the “stoichiometry N” value [6]?
A: 3

Q: And the “stoichiometry N” value [7]?
A: 3 subunits

Q: What about the Km [8] of the same protein?
A: 4.8 ± 0.7 µM

Q: And the Vmax [8]?
A: 56.8 µmol/min/mg

Q: And the kcat [8]?
A: 142 s⁻¹

Q: What about the kcat/Km [8] of the same protein?
A: 2.96e+07 M⁻¹ s⁻¹

Q: What about the Km [9] of the same protein?
A: 5.5 ± 1.1 µM

Q: And the Vmax [9]?
A: 74.2 µmol/min/mg

Q: And the kcat [9]?
A: 186 s⁻¹

Q: What about the kcat/Km [9] of the same protein?
A: 3.37e+07 M⁻¹ s⁻¹

Q: And the Km [10]?
A: 6.5 ± 0.9 µM

Q: What about the Vmax [10] of the same protein?
A: 32.3 µmol/min/mg

Q: What about the kcat [10] of the same protein?
A: 80.2 s⁻¹

Q: And the kcat/Km [10]?
A: 1.23e+07 M⁻¹ s⁻¹

B2: SALDan E175A (Alteromonas naphthalenivorans; E175A) (protein)
chain: MKTQLIINNKFVDSESTNTFERYNQTLGEVVTSAAAASVADANNAAEVAQEAFKSWSKTGPTERRNVLLKAADILESKTAEFIDVMAKEVGSSGLWAGFNVMLAANVFREAASLATQIQGETIPTDKPGTLSMTIREPVGVILSIAPWNGPIVLAARAIAYPIVCGNSVVFKASAVSPKTHSLVVEAVIEAGLPAGVLNLLSNKPEDGESIVNALIEHKAVRRINFTGSTHVGRIIAQKAGYHLKRCLLELGGKSPQVILDDANLKEAAKAATFGSFLYQGQICMTTGRIIVDESVADEFGEIFAKLASKLPVGNPCDNNDCIVGPVVTQSSAERLNGYIDDALSKGAKLITGGKANGTVMKPTILDHVTSDMEIYHEESFGPLICMVRVKNADEALHTANDTPYGLSAAVFGKDVNRALQMAKDINAGHCHVNGTTVQNDAQAPYGGTKDSGWGRFDGRAVIDEFTELKWITIEPIVQDYPF
Q: For B2, which Km [11] is on record?
A: 15.1 ± 2.6 µM

Q: And the Vmax [11]?
A: 32.3 µmol/min/mg

Q: And the kcat [11]?
A: 82.2 ± 10.1 s⁻¹

Q: And the kcat/Km [11]?
A: 5.4e+06 ± 900000 M⁻¹ s⁻¹

Q: What about the Km [12] of the same protein?
A: 105.6 ± 10.3 µM

Q: And the Vmax [12]?
A: 60.6 µmol/min/mg

Q: What about the kcat [12] of the same protein?
A: 158 ± 17.2 s⁻¹

Q: What about the kcat/Km [12] of the same protein?
A: 1.5e+06 ± 400000 M⁻¹ s⁻¹
